# Key:
# Experiment in all cases: FRET or BRET; CFP (donor) and YFP (acceptor) fusions co-expressed from pETDuet-1 in E. coli; late exponential cells washed once with 0.9% NaCl, 150 μl in a 96 well plate, Tecan Infinite M200 Pro; excitation 435 nm, emission 466-610 nm; RCY = ratio of the emission maxima of eCFP (480 nm) and eYFP (525 nm); RCY 1.1–1.3 read as enrichment/interaction, 0.9–1.1 as approximation without interaction, <0.9 as no FRET
# [1] = target: DivIVAI18F-YFP (C. glutamicum)
# [2] = target: DivIVAK20R-YFP (C. glutamicum)
# [3] = target: DivIVAΔM-YFP (C. glutamicum)
# [4] = target: DivIVA-YFP (C. glutamicum)
# [5] = target: DivIVAI18D-YFP (C. glutamicum)
"RCY (CFP/YFP emission ratio, FRET) [1]","RCY (CFP/YFP emission ratio, FRET) [2]","RCY (CFP/YFP emission ratio, FRET) [3]","RCY (CFP/YFP emission ratio, FRET) [4]","RCY (CFP/YFP emission ratio, FRET) [5]",Substance
1.27,1.11,1.19,1.15,1.14,RodA-CFP (natural protein)
–,–,–,1.1,–,RodAE438G-CFP (natural protein)
–,–,–,1.16,–,ParB-CFP (natural protein)
